Laboratory results published in the supplement of paper PMC10724198.

Assays:
[1] = test system: Saccharomyces cerevisiae; test: protein stability index of tFT-peptide fusion in wild type (PSI (0-1 scale)); higher = more stable (slower turnover); conditions: genetic background: wild type
Description: (§1)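 MPS profiling in S. cerevisiae of two library types built from selected 12-aa C-degron peptides (IN1, IN2, LN1, LN3, VN2, R1-R5, W1-W3, Atg1 and Rpa12 C-termini): saturation mutagenesis libraries and C-terminal +1 capping libraries (13 aa). Each peptide is fused to the C-terminus of a sfGFP-mCherry timer, after a GGGS linker. Cells are FACS-sorted into 8 mCherry/sfGFP bins and sequenced. PSI runs from 0 (unstable) to 1 (stable), measured once in wild type and in the das1Δ or doa10Δ background.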

[2] = test system: Saccharomyces cerevisiae; test: protein stability index of tFT-peptide fusion in deletion strain of DAS1 (PSI (0-1 scale)); higher = more stable (slower turnover)
Description: as §1
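Wherever protein stability index of tFT-peptide fusion in deletion strain of DAS1 is given: PSI is a weighted mean of each variant's read distribution over the sorted stability bins, computed only for variants having over 10 reads in total.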
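Wherever protein stability index of tFT-peptide fusion in wild type is given: PSI derived as read-weighted mean over the 8 sorting bins, only variants exceeding 10 total reads kept, mCherry placed adjacent to the peptide and sfGFP distal.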

Row | Sequence | protein stability index [1] | protein stability index [2]
1 | RLIQPKPVQFLN | 0.0691 | 0.586
2 | CTSCGYKKRTNN | 0.474 | 0.692
3 | LKILRIKMNHQN | 0.19 | 0.66
4 | PMLAASFWRVVG | 0.162 | 0.702
5 | LKILRQHMNHQN | 0.201 | 0.662
6 | ADKRNHLIKLLN | 0.129 | 0.587
7 | LVVYLSCVASIN | 0.0148 | 0.0412
8 | ARWRWGLWRGAS | 0.55 | 0.681
9 | ARWRVRLWRGAS | 0.333 | 0.671
10 | PSLAASFWRFVG | 0.137 | 0.707
11 | RLIQPLPVGFLN | 0.322 | 0.587
12 | KKHKKSQKQKIN | 0.0607 | 0.584
13 | PSLAASFWRYVG | 0.134 | 0.657
14 | PDKRNHLIKWLN | 0.182 | 0.694
15 | LVVLLSCVACIN | 0.0235 | 0.0371
16 | KKHKKGQKQKII | 0.12 | 0.632
17 | FSMRTTFRYWVN | 0.0969 | 0.623
18 | FSMRWTFRYDVN | 0.524 | 0.572
19 | FSMRWTFRYWAN | 0.101 | 0.537
20 | LKILRQKMNHQW | 0.255 | 0.679

Row | Sequence | protein stability index [1] | protein stability index [2]
21 | VRGAVGGVRLVG | 0.645 | 0.654
22 | RYIQPLPVQFLN | 0.0617 | 0.564
23 | LKTLRQKMNHQN | 0.205 | 0.672
24 | VRGAVGGQRLVG | 0.643 | 0.677
25 | KKHKKGQKQKYN | 0.309 | 0.586
26 | VRFAVGGWRLVG | 0.0977 | 0.678
27 | LKILRQKMNHQNR | 0.677 | 0.673
28 | PSLAASFWRVVGN | 0.651 | 0.689
29 | CTSCKYKFRTNN | 0.376 | 0.69
30 | LKILRQGMNHQN | 0.49 | 0.667
31 | PSLAASFWRVVE | 0.684 | 0.696
32 | RLIQPLPVQFLNV | 0.599 | 0.621
33 | PSLAAFFWRVVG | 0.13 | 0.691
34 | LKILRQKMNCQN | 0.207 | 0.673
35 | ASMRWTFRYWVN | 0.0684 | 0.602
36 | FGMRWTFRYWVN | 0.0525 | 0.53
37 | KKHKKGQKQKIW | 0.637 | 0.558
38 | RLIQPLPVQFLT | 0.223 | 0.59
39 | RLIQPPPVQFLN | 0.06 | 0.641
40 | PDKRNHLPKLLN | 0.148 | 0.612

Row | Sequence | protein stability index [1] | protein stability index [2]
41 | GRWRVGLWRGAS | 0.447 | 0.691
42 | FSMRETFRYWVN | 0.048 | 0.596
43 | LLIQPLPVQFLN | 0.0661 | 0.624
44 | PSLAASFWRVFG | 0.367 | 0.699
45 | CTSCGYKFRTNH | 0.191 | 0.68
46 | PSLAQSFWRVVG | 0.188 | 0.699
47 | CLSCGYKFRTNN | 0.228 | 0.701
48 | CTSSGYKFRTNN | 0.413 | 0.634
49 | PSLAASFWRVKG | 0.549 | 0.664
50 | LKILRQKMRHQN | 0.301 | 0.669
51 | RLIQPTPVQFLN | 0.192 | 0.563
52 | LVVYLSCVAWIN | 0.0134 | 0.0302
53 | CASCGYKFRTNN | 0.281 | 0.714
54 | LVVYLSCFACIN | 0.0181 | 0.0433
55 | VRGAHGGWRLVG | 0.146 | 0.662
56 | CTSCDYKFRTNN | 0.556 | 0.689
57 | FSMRWTFRYWVNE | 0.532 | 0.542
58 | LVVYLSLVACIN | 0.0258 | 0.0617
59 | RLGQPLPVQFLN | 0.0875 | 0.611
